We go through five proteins from paper doi:10.1101/2025.07.28.666932, “Mechanism-Guided Engineering of Fluorinase Unlocks Efficient Nucleophilic Biofluorination” (bioRxiv, 2025).

Positions count from the first letter of the chain named. In names and notes the source's numbering stands. Several values for one entry are separate records, joined by “and”; a condition that tells them apart may be missing. Equal entries are not always repeated.

Data set [1] deals with the molecule itself. Briefly: mass photometry; free enzyme, 500 nM, 30 mM HEPES buffer, pH 7.5, 20 °C; histograms fitted to the sum of five Gaussian distributions.
Data set [2] deals with the molecule itself. The data set can be described thus: mass photometry; in the presence of substrates, under the reaction conditions; fitted globally with the kinetic data (association constants monomer to trimer K_(a,3E), hexamer K_(a,6E), higher oligomers K_(a,agg)).
Data set [3] deals with the molecule itself. The data set can be described thus: not stated; oligomeric state under all conditions of the kinetic experiments (Fig. S8); method not given.

B1: fluorinase FlA1 from Streptomyces sp. strain MA37 (5'-fluoro-5'-deoxyadenosine synthase), wild type (enzyme, UniProt W0W999 1-299, looked up)
chain: MAANGSQRPIIAFMSDLGTTDDSVAQCKGLMHSICPGVTVVDVCHSMTPWDVEEGARYIVDLPRFFPEGTVFATTTYPATGTTTRSVAVRIRQAAKGGARGQWAGSGDGFERADGSYIYIAPNNGLLTTVLEEHGYIEAYEVTSTKVIPANPEPTFYSREMVAIPSAHLAAGFPLAEVGRRLDDSEIVRFHRPAVEISGEALSGVVTAIDHPFGNIWTNIHRTDLEKAGIGQGKHLKIILDDVLPFEAPLTPTFADAGAIGNIAFYLNSRGYLSLARNAASLAYPYNLKAGLKVRVEAR
notes: fluorinase FlA1 (5'-fluoro-5'-deoxyadenosine synthase), Streptomyces sp. strain MA37; Exists as trimers, hexamers and higher oligomers; also called wild-type FlA1; wild-type fluorinase; source: overexpressed in Escherichia coli, purified
Usually stoichiometry N stands for a count of units in the complex or per binding partner. As to B1, the “stoichiometry N” value in data set [1] is 3 and 6.

B2: fluorinase FlA1 double mutant W50F+A279R (enzyme, Streptomyces sp. strain MA37, UniProt W0W999 1-299, looked up)
chain: B1 chain with W50F, A279R
notes: fluorinase FlA1, Streptomyces sp. strain MA37, wild type with W50F and A279R; also called A279R+W50F; FlA1+A279R+W50F
As for B2, the “stoichiometry N” value in data set [2] is 6.

B3: fluorinase FlA1 variant A279R (enzyme, Streptomyces sp. strain MA37, UniProt W0W999 1-299, looked up)
chain: B1 chain with A279R
notes: fluorinase FlA1, Streptomyces sp. strain MA37, wild type with A279R
B3: the “stoichiometry N” value in data set [2] amounted to 6.

B4: fluorinase FlA1 variant C44T (enzyme, Streptomyces sp. strain MA37, UniProt W0W999 1-299, looked up)
chain: B1 chain with C44T
notes: fluorinase FlA1, Streptomyces sp. strain MA37, with C44T; everywhere else C44T; also called FlA1+C44T
On to B4, for which the “stoichiometry N” value in data set [3] is 6.

B5: fluorinase FlA1 variant W50F (enzyme, Streptomyces sp. strain MA37, UniProt W0W999 1-299, looked up)
chain: B1 chain with W50F
notes: fluorinase FlA1, Streptomyces sp. strain MA37, wild type with W50F
Consider B5, for which the binding result in data set [2] is “binds”.
